Consider 1 protein from ChEMBL document CHEMBL4725261, “Design, synthesis and evaluation of carbamate-linked uridyl-based inhibitors of human ST6Gal I” (Bioorg Med Chem, 2020).

Substrate in this data set: CC(=O)N[C@H]1[C@H]([C@H](O)[C@H](O)CO)O[C@](OP(=O)(O)OC[C@H]2O[C@@H](n3ccc(N)nc3=O)[C@H](O)[C@@H]2O)(C(=O)O)C[C@@H]1O
As to the kind of experiment: Binding affinity to recombinant human N-terminal 6His-tagged ST6Gal-1 (Glu44 to Cys406 residues).

Broadly, the Km is the concentration of substrate that gives half-maximal velocity.

B1: Beta-galactoside alpha-2,6-sialyltransferase 1 (Homo sapiens), P15907 (protein)
chain: MIHTNLKKKFSCCVLVFLLFAVICVWKEKKKGSYYDSFKLQTKEFQVLKSLGKLAMGSDSQSVSSSSTQDPHRGRQTLGSLRGLAKAKPEASFQVWNKDSSSKNLIPRLQKIWKNYLSMNKYKVSYKGPGPGIKFSAEALRCHLRDHVNVSMVEVTDFPFNTSEWEGYLPKESIRTKAGPWGRCAVVSSAGSLKSSQLGREIDDHDAVLRFNGAPTANFQQDVGTKTTIRLMNSQLVTTEKRFLKDSLYNEGILIVWDPSVYHSDIPKWYQNPDYNFFNNYKTYRKLHPNQPFYILKPQMPWELWDILQEISPEEIQPNPPSSGMLGIIIMMTLCDQVDIYEFLPSKRKTDVCYYYQKFFDSACTMGAYHPLLYEKNLVKHLNQGTDEDIYLLGKATLPGFRTIHC
For the protein B1, the Km amounted to 37.2 µM.
